Test results reported in patent US20250270325A1.

Target: target antigen
Experiment: antigen binding ELISA, antigen coated on plate

isotype control (antibody)
no binding up to (highest concentration tested): > 5 µM
